Source: patent US20210070875A1

Columns and labels:
Experiment in all cases: ELISA, polypeptide coated at 1.0 µg/mL
[1] = molecular target: C5aR polypeptide-04 (UniProt P21730)
[2] = molecular target: C5aR polypeptide-05 (UniProt P21730)
[3] = molecular target: C5aR extracellular N-terminus polypeptide (UniProt P21730)
[4] = molecular target: C5aR polypeptide-03 (UniProt P21730)

B1: 2A12B2B2 (antibody, V domains shown)
VH: QVQLQQPGADLVKPGASVKMSCKASGYILTTYWITWVKQRPGQGLEWIGDIHPGSGSTKYNEKFKSKATLTVDTSSSTAYMQLTRLSSEDSAVYYCARRDYWGQGTTLTVSS
VL: DIQMTQTTSSLSASLGDKVTISCRASQDISNYLSWYQQKPDGTVKLLIYWISRLHSGVPSRFSGSGSGTDFSLTISNLEQEDIATYFCQQGNSLPPTFGGGTKLEVK
- OD450 nm [1]: 2.34 OD450 nm
- OD450 nm [2]: 0.29 OD450 nm
- OD450 nm [3]: 0.05 OD450 nm
- OD450 nm [4]: 0.06 OD450 nm

B2: 43E8F5B6 (antibody, V domains shown)
VH: EVQLQQSGPELVKPGASVKISCKASGYTFTDYYMSWMKQSHGKSLEWIGDINPNNGDNIYNQKFKGKATLTVDRSSSTAYMDLRSLTSEDSAVYYCARWYYYVSSFSYWYFDVWGTGTTVTVSS
VL: EIVLTQSPTTMAASPGEKITITCSATSSINSNYLHWYQQKPGFSPKLLIYRTSNLASGVPARFSGSGSGTSYSLTIGTMEAEDVATYYCQQGRTIPRTFGSGTKLEIK
- OD450 nm [1]: 0.1 OD450 nm
- OD450 nm [2]: 0.06 OD450 nm
- OD450 nm [3]: 0.12 OD450 nm
- OD450 nm [4]: 0.08 OD450 nm

B3: 8B5D1A9 (antibody, V domains shown)
VH: QVQLKQSGAELVKPGASVKISCKTSGYIFTDYYINWMKQRPGQGLEWIGKIGPGSGTTFYNEKFKGKATLTADKSSTTLYMQLSSLTAEDSAVYFCTRRGYYSSSYFYWGQGTTLTVSS
VL: DIVMTQSPSSLSVSAGEKVIMSCKSSQSLLNSERQKNYLAWYQQKPGQSPKLLIYGASTRESGVPDRFTGSGSGTDFTLTISSVQAEDLAVYYCLNDHSYPLTFGAGTKLELK
- OD450 nm [1]: 0.1 OD450 nm
- OD450 nm [2]: 0.08 OD450 nm
- OD450 nm [3]: 2.5 OD450 nm
- OD450 nm [4]: 0.05 OD450 nm

B4: 5F8E2C11 (antibody, V domains shown)
VH: QVQLRQSGPGLVQPSQSLSITCTVSGFSLTSYGVHWVRQSPGKGLEWLGVIWSGGSTDYNAAFISRLSISKDYSKSQIFLTMNSLQTDDTAIYYCARNSRLGNCFDYWGQGTTLTVSS
VL: DIVMSQSPSSLAVSAGEKVTMSCKSSQSLLNSRTRKNYLAWYQQKPGQSPKLLIYWASTRESGVPDRFTGSGSGTDFTLTISSVQAEDLAVYYCKQSYNLPAFGGGTKLEIK
- OD450 nm [1]: 2.52 OD450 nm
- OD450 nm [2]: 0.56 OD450 nm
- OD450 nm [3]: 0.22 OD450 nm
- OD450 nm [4]: 0.31 OD450 nm

B5: 9D5A12G7 (antibody, V domains shown)
VH: QVQLKQSGPGLVQPSQSLSITCTVSGFSLTSYGVHWVRQSPGKGLEWLGVIWSGGSTDYNAAFISRLSISKDNSKSQVFFKMNSLQADDTAIYYCARNGLLGNAMDYWGQGTSVTVSS
VL: DIVMSQSPSSLAVSAGEKVTMSCKSSQSLLSSRTRKNYLAWYQQKPGQSPKLLIYWASTRESGVPDRFTGSGSGTDFTLTISSVQTEDLAVYYCKQSYNLLTFGAGTTLELK
- OD450 nm [1]: 2.46 OD450 nm
- OD450 nm [2]: 0.41 OD450 nm
- OD450 nm [3]: 0.06 OD450 nm
- OD450 nm [4]: 0.06 OD450 nm
